According to publication PMC7778609:

Experiments:
[1] = biological target: human FcRn, his-tagged (human) (UniProt P55899); assay: SPR; as a1, his-tagged FcRn captured by anti-his antibody, antibody variants injected; pH 6
[2] = biological target: human FcγRIIIa^V158 extracellular domain with AviTag and 6×his tag (human); assay: SPR; Biacore T200, HBS-EP+ buffer, 20 °C; 500 nM his-tagged FcγR extracellular domains captured by anti-his antibody on a CM5 chip; twofold serially diluted antibody variants injected (120 s association, 130 s dissociation, 30 μL/min); 1:1 binding kinetics model or steady state affinity model
[3] = biological target: human FcγRIIa^H131 extracellular domain with AviTag and 6×his tag (human) (UniProt P12318); assay: as above
[4] = biological target: human FcγRIIb extracellular domain with AviTag and 6×his tag (human) (UniProt P31994); assay: as above
[5] = biological target: human FcγRIIa^R131 extracellular domain with AviTag and 6×his tag (human); assay: as above
[6] = biological target: human FcγRIIIa^F158 extracellular domain with AviTag and 6×his tag (human) (UniProt P08637); assay: as above
[7] = biological target: human FcγRI extracellular domain, his-tagged (human) (UniProt P12314); assay: as above
Sequence of human FcγRI extracellular domain, his-tagged (human) (P12314 16-292): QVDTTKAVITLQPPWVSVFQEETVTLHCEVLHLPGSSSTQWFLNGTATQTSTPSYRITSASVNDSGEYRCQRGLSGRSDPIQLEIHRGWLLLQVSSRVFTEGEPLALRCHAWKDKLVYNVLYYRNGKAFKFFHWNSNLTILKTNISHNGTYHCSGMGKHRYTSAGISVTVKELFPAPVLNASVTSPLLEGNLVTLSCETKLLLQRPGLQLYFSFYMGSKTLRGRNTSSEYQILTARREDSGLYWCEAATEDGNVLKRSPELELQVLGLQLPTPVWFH

Sequence of human FcγRIIa^H131 extracellular domain with AviTag and 6×his tag (human) (P12318 34-217): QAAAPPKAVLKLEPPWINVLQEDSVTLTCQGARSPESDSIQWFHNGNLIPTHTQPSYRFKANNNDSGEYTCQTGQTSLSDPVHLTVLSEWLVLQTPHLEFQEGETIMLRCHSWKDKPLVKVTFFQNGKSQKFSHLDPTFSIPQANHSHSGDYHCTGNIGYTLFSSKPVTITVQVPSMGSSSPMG
Sequence of human FcRn, his-tagged (human) (P55899 24-297): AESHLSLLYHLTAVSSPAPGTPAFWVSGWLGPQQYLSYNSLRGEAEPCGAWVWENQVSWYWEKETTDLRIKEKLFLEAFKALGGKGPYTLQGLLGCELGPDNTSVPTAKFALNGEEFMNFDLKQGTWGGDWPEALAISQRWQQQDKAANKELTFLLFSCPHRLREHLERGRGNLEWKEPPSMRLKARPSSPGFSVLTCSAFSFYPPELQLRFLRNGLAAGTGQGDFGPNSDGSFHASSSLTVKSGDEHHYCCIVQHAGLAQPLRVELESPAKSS
Sequence of human FcγRIIIa^F158 extracellular domain with AviTag and 6×his tag (human) (P08637 17-208): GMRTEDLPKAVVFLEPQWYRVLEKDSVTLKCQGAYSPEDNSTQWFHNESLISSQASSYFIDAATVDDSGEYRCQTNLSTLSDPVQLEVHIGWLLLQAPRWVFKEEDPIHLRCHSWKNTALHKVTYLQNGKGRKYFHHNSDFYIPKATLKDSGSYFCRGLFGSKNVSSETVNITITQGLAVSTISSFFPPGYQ
Sequence of human FcγRIIb extracellular domain with AviTag and 6×his tag (human) (P31994 43-217): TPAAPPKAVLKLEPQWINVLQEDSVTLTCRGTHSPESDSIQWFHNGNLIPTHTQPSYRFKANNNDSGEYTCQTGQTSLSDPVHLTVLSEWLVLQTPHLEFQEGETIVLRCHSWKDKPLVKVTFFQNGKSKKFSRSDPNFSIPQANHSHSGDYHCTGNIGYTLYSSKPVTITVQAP

| Substance | Kd [1] | Kd [2] | Kd [3] | Kd [4] | Kd [5] | Kd [6] | Kd [7] |
| --- | --- | --- | --- | --- | --- | --- | --- |
| rituximab with Fc variant H268E/A330Y/I332D (antibody) | 0.0219 µM | 0.0606 µM | 0.526 µM | 1.47 µM | 0.68 µM | 0.094 µM | 0.00504 µM |
| rituximab with Fc variant H268E/K326S/I332E (antibody) | 0.025 µM | 0.0747 µM | 0.814 µM | 1.13 µM | 0.803 µM | 0.151 µM | 0.00518 µM |
| fucosylated trastuzumab with wild-type Fc (antibody) | – | 0.0385 µM | 1 µM | 1.24 µM | 1.5 µM | 0.174 µM | – |
| rituximab with Fc variant H268E/A330T/I332E (antibody) | 0.0215 µM | 0.0611 µM | 0.627 µM | 0.906 µM | 0.575 µM | 0.156 µM | 0.00564 µM |
| rituximab with Fc variant H268E/K326I/I332E (antibody) | 0.0257 µM | 0.143 µM | 1.95 µM | 1.69 µM | 1.21 µM | 0.311 µM | 0.00611 µM |
| defucosylated trastuzumab with wild-type Fc (antibody) | – | 0.0123 µM | 2.09 µM | 1.78 µM | 1.46 µM | 0.0465 µM | – |
| rituximab with Fc variant H268E/K326M/I332E (antibody) | 0.026 µM | 0.0691 µM | 0.882 µM | 1.05 µM | 0.738 µM | – | 0.00515 µM |
| rituximab with wild-type Fc (antibody) | 0.021 µM | 0.403 µM | 1.09 µM | 2.41 µM | 1.25 µM | 0.944 µM | 0.00867 µM |
| defucosylated trastuzumab with Fc variant H268E/K326M/I332E (antibody) | – | 0.00171 µM | 1.04 µM | 1.03 µM | 0.42 µM | 0.00355 µM | – |
| defucosylated trastuzumab with Fc variant H268E/K326S/I332E (antibody) | – | 0.00136 µM | 0.669 µM | 1.46 µM | 0.369 µM | 0.00262 µM | – |
